This is an account of results in patent US20260242419A1, “A CYCLIC PEPTIDE FOR TRAPPING INTERLEUKIN-1 BETA” (Merck Sharp & Dohme LLC, priority 2023, published 2026).

Starred links: 1 amine or outer side, 2 acyl side, 3 side chain; linkers in the order of their positions; H or OH if unused. Non-standard residues stand in square brackets, D forms with d. SbOHPhe4CONH2 = (2S,3S)-2-amino-3-(4-carbamoylphenyl)-3-hydroxypropanoic acid, NC(=O)c1ccc([C@H](O[*:3])[C@H](N[*:1])C(=O)[*:2])cc1; TyrEtNAc = (2S)-3-[4-(2-acetamidoethoxy)phenyl]-2-amino-propanoic acid, CC(=O)NCCOc1ccc(C[C@H](N[*:1])C(=O)[*:2])cc1; alThrOEt = O-ethyl-L-allothreonine, CCO[C@@H](C)[C@H](N[*:1])C(=O)[*:2]; ThrOEt = O-ethyl-L-threonine, CCO[C@H](C)[C@H](N[*:1])C(=O)[*:2]; dPro(4R-(4-pyridylmethyl)) = O=C(O)[C@H]1C[C@@H](Cc2ccncc2)CN1; Trp(βS-Me,4-F) = C[C@@H](c1c[nH]c2cccc(F)c12)[C@H](N)C(=O)O; Bip(4'-CONH2) = NC(=O)c1ccc(-c2ccc(C[C@H](N)C(=O)O)cc2)cc1; Ala(1-bicyclo(1.1.1)pentyl) = N[C@@H](CC12CC(C1)C2)C(=O)O; dPro(3S-(4-F-Bn)) = O=C(O)[C@@H]1NCC[C@@H]1Cc1ccc(F)cc1; Ala(pyrimidin-5-yl) = N[C@@H](Cc1cncnc1)C(=O)O; Phe(4-CONH2) = NC(=O)c1ccc(C[C@H](N)C(=O)O)cc1; Phe(4-COOH) = N[C@@H](Cc1ccc(C(=O)O)cc1)C(=O)O; Pro(cis-4-F) = O=C(O)[C@@H]1C[C@H](F)CN1; Ala(4-THP) = N[C@@H](CC1CCOCC1)C(=O)O; d(αMeD) = C[C@@](N)(CC(=O)O)C(=O)O; 4Pal = N[C@@H](Cc1ccncc1)C(=O)O; d(αMeS) = C[C@@](N)(CO)C(=O)O; NMeDab = CN[C@@H](CCN)C(=O)O; Dab = NCC[C@H](N)C(=O)O; Aib = CC(C)(N)C(=O)O

B1: SEQ ID NO 382 (peptide)
peptide: cyclo([TyrEtNAc][4Pal][Phe(4-CONH2)]G[Pro(cis-4-F)][Trp(βS-Me,4-F)][Aib]SW[Aib][ThrOEt]Q[NMeDab]G[dPro(4R-(4-pyridylmethyl))])
SMILES: CCO[C@H](C)[C@@H]1NC(=O)C(C)(C)NC(=O)[C@H](Cc2c[nH]c3ccccc23)NC(=O)[C@H](CO)NC(=O)C(C)(C)NC(=O)[C@H]([C@@H](C)c2c[nH]c3cccc(F)c23)NC(=O)[C@@H]2C[C@H](F)CN2C(=O)CNC(=O)[C@H](Cc2ccc(C(N)=O)cc2)NC(=O)[C@H](Cc2ccncc2)NC(=O)[C@H](Cc2ccc(OCCNC(C)=O)cc2)NC(=O)[C@H]2C[C@@H](Cc3ccncc3)CN2C(=O)CNC(=O)[C@H](CCN)N(C)C(=O)[C@H](CCC(N)=O)NC1=O
B2: SEQ ID NO 381 (peptide)
peptide: cyclo([TyrEtNAc][4Pal][Phe(4-CONH2)]G[Pro(cis-4-F)][Trp(βS-Me,4-F)][Aib]SW[Aib][alThrOEt]Q[NMeDab]G[dPro(4R-(4-pyridylmethyl))])
SMILES: CCO[C@@H](C)[C@@H]1NC(=O)C(C)(C)NC(=O)[C@H](Cc2c[nH]c3ccccc23)NC(=O)[C@H](CO)NC(=O)C(C)(C)NC(=O)[C@H]([C@@H](C)c2c[nH]c3cccc(F)c23)NC(=O)[C@@H]2C[C@H](F)CN2C(=O)CNC(=O)[C@H](Cc2ccc(C(N)=O)cc2)NC(=O)[C@H](Cc2ccncc2)NC(=O)[C@H](Cc2ccc(OCCNC(C)=O)cc2)NC(=O)[C@H]2C[C@@H](Cc3ccncc3)CN2C(=O)CNC(=O)[C@H](CCN)N(C)C(=O)[C@H](CCC(N)=O)NC1=O
B3: SEQ ID NO 377 (peptide)
peptide: cyclo([TyrEtNAc][4Pal][Phe(4-CONH2)]G[Pro(cis-4-F)][Trp(βS-Me,4-F)][Aib]SW[d(αMeD)][Ala(4-THP)]Q[Dab]G[dPro(4R-(4-pyridylmethyl))])
SMILES: CC(=O)NCCOc1ccc(C[C@@H]2NC(=O)[C@H]3C[C@@H](Cc4ccncc4)CN3C(=O)CNC(=O)[C@H](CCN)NC(=O)[C@H](CCC(N)=O)NC(=O)[C@H](CC3CCOCC3)NC(=O)[C@@](C)(CC(=O)O)NC(=O)[C@H](Cc3c[nH]c4ccccc34)NC(=O)[C@H](CO)NC(=O)C(C)(C)NC(=O)[C@H]([C@@H](C)c3c[nH]c4cccc(F)c34)NC(=O)[C@@H]3C[C@H](F)CN3C(=O)CNC(=O)[C@H](Cc3ccc(C(N)=O)cc3)NC(=O)[C@H](Cc3ccncc3)NC2=O)cc1
B4: SEQ ID NO 380 (peptide)
peptide: cyclo([Bip(4'-CONH2)][4Pal][Phe(4-CONH2)]G[Pro(cis-4-F)][Trp(βS-Me,4-F)][Aib]SW[d(αMeD)][Ala(pyrimidin-5-yl)]Q[Dab]G[dPro(3S-(4-F-Bn))])
SMILES: C[C@@H](c1c[nH]c2cccc(F)c12)[C@@H]1NC(=O)[C@@H]2C[C@H](F)CN2C(=O)CNC(=O)[C@H](Cc2ccc(C(N)=O)cc2)NC(=O)[C@H](Cc2ccncc2)NC(=O)[C@H](Cc2ccc(-c3ccc(C(N)=O)cc3)cc2)NC(=O)[C@H]2[C@@H](Cc3ccc(F)cc3)CCN2C(=O)CNC(=O)[C@H](CCN)NC(=O)[C@H](CCC(N)=O)NC(=O)[C@H](Cc2cncnc2)NC(=O)[C@@](C)(CC(=O)O)NC(=O)[C@H](Cc2c[nH]c3ccccc23)NC(=O)[C@H](CO)NC(=O)C(C)(C)NC1=O
B5: SEQ ID NO 376 (peptide)
peptide: cyclo([TyrEtNAc][Ala(1-bicyclo(1.1.1)pentyl)][Phe(4-CONH2)]G[Pro(cis-4-F)][Trp(βS-Me,4-F)][Aib]SW[d(αMeD)][Ala(4-THP)]Q[Dab]G[dPro(4R-(4-pyridylmethyl))])
SMILES: CC(=O)NCCOc1ccc(C[C@@H]2NC(=O)[C@H]3C[C@@H](Cc4ccncc4)CN3C(=O)CNC(=O)[C@H](CCN)NC(=O)[C@H](CCC(N)=O)NC(=O)[C@H](CC3CCOCC3)NC(=O)[C@@](C)(CC(=O)O)NC(=O)[C@H](Cc3c[nH]c4ccccc34)NC(=O)[C@H](CO)NC(=O)C(C)(C)NC(=O)[C@H]([C@@H](C)c3c[nH]c4cccc(F)c34)NC(=O)[C@@H]3C[C@H](F)CN3C(=O)CNC(=O)[C@H](Cc3ccc(C(N)=O)cc3)NC(=O)[C@H](CC34CC(C3)C4)NC2=O)cc1
B6: SEQ ID NO 383 (peptide)
peptide: cyclo([TyrEtNAc][4Pal][SbOHPhe4CONH2]G[Pro(cis-4-F)][Trp(βS-Me,4-F)][Aib]SW[Aib][Ala(pyrimidin-5-yl)]Q[NMeDab]G[dPro(4R-(4-pyridylmethyl))])
SMILES: CC(=O)NCCOc1ccc(C[C@@H]2NC(=O)[C@H]3C[C@@H](Cc4ccncc4)CN3C(=O)CNC(=O)[C@H](CCN)N(C)C(=O)[C@H](CCC(N)=O)NC(=O)[C@H](Cc3cncnc3)NC(=O)C(C)(C)NC(=O)[C@H](Cc3c[nH]c4ccccc34)NC(=O)[C@H](CO)NC(=O)C(C)(C)NC(=O)[C@H]([C@@H](C)c3c[nH]c4cccc(F)c34)NC(=O)[C@@H]3C[C@H](F)CN3C(=O)CNC(=O)[C@H]([C@@H](O)c3ccc(C(N)=O)cc3)NC(=O)[C@H](Cc3ccncc3)NC2=O)cc1
B7: SEQ ID NO 379 (peptide)
peptide: cyclo([Bip(4'-CONH2)][4Pal][Phe(4-COOH)]G[Pro(cis-4-F)][Trp(βS-Me,4-F)][Aib]SW[d(αMeD)][Ala(pyrimidin-5-yl)]Q[Dab]G[dPro(3S-(4-F-Bn))])
SMILES: C[C@@H](c1c[nH]c2cccc(F)c12)[C@@H]1NC(=O)[C@@H]2C[C@H](F)CN2C(=O)CNC(=O)[C@H](Cc2ccc(C(=O)O)cc2)NC(=O)[C@H](Cc2ccncc2)NC(=O)[C@H](Cc2ccc(-c3ccc(C(N)=O)cc3)cc2)NC(=O)[C@H]2[C@@H](Cc3ccc(F)cc3)CCN2C(=O)CNC(=O)[C@H](CCN)NC(=O)[C@H](CCC(N)=O)NC(=O)[C@H](Cc2cncnc2)NC(=O)[C@@](C)(CC(=O)O)NC(=O)[C@H](Cc2c[nH]c3ccccc23)NC(=O)[C@H](CO)NC(=O)C(C)(C)NC1=O
B8: SEQ ID NO 378 (peptide)
peptide: cyclo([TyrEtNAc][4Pal][Phe(4-CONH2)]G[Pro(cis-4-F)][Trp(βS-Me,4-F)][Aib]SW[d(αMeS)][Ala(4-THP)]Q[Dab]G[dPro(4R-(4-pyridylmethyl))])
SMILES: CC(=O)NCCOc1ccc(C[C@@H]2NC(=O)[C@H]3C[C@@H](Cc4ccncc4)CN3C(=O)CNC(=O)[C@H](CCN)NC(=O)[C@H](CCC(N)=O)NC(=O)[C@H](CC3CCOCC3)NC(=O)[C@@](C)(CO)NC(=O)[C@H](Cc3c[nH]c4ccccc34)NC(=O)[C@H](CO)NC(=O)C(C)(C)NC(=O)[C@H]([C@@H](C)c3c[nH]c4cccc(F)c34)NC(=O)[C@@H]3C[C@H](F)CN3C(=O)CNC(=O)[C@H](Cc3ccc(C(N)=O)cc3)NC(=O)[C@H](Cc3ccncc3)NC2=O)cc1
B9: SEQ ID NO 375 (peptide)
peptide: cyclo([TyrEtNAc][Ala(1-bicyclo(1.1.1)pentyl)][Phe(4-COOH)]G[Pro(cis-4-F)][Trp(βS-Me,4-F)][Aib]SW[d(αMeS)][Ala(4-THP)]Q[Dab]G[dPro(4R-(4-pyridylmethyl))])
SMILES: CC(=O)NCCOc1ccc(C[C@@H]2NC(=O)[C@H]3C[C@@H](Cc4ccncc4)CN3C(=O)CNC(=O)[C@H](CCN)NC(=O)[C@H](CCC(N)=O)NC(=O)[C@H](CC3CCOCC3)NC(=O)[C@@](C)(CO)NC(=O)[C@H](Cc3c[nH]c4ccccc34)NC(=O)[C@H](CO)NC(=O)C(C)(C)NC(=O)[C@H]([C@@H](C)c3c[nH]c4cccc(F)c34)NC(=O)[C@@H]3C[C@H](F)CN3C(=O)CNC(=O)[C@H](Cc3ccc(C(=O)O)cc3)NC(=O)[C@H](CC34CC(C3)C4)NC2=O)cc1

The target in the experiment is Recombinant human IL-1β (BioLegend 579404) (human, UniProt P01584 117-269). The experiment in a line: cell-based or functional assay.
On to cyclo([TyrEtNAc][4Pal][Phe(4-CONH2)]G[Pro(cis-4-F)][Trp(βS-Me,4-F)][Aib]SW[Aib][Ala(pyrimidin-5-yl)]Q[Dab]G[dPro(4R-(4-pyridylmethyl))]) [SEQ ID NO 384], for which the “MRC5 IC50” value amounted to 0.086 nM. As to B1, the “MRC5 IC50” value came out at 0.048 nM.

In the case of B2, the “MRC5 IC50” value worked out at 0.041 nM. Consider B3, for which the “MRC5 IC50” value was 0.04 nM.

With B4, the “MRC5 IC50” value came to 0.018 nM. B5: the “MRC5 IC50” value worked out at 0.048 nM. On to B6, for which the “MRC5 IC50” value is 0.042 nM. As for B7, the “MRC5 IC50” value came to 0.016 nM. With B8, the “MRC5 IC50” value amounted to 0.043 nM. The figure for B9 is 0.025 nM.
